Experimental data reported in patent US20130011375A1 (published 2013).

T1: HCV NS3 1073-1081, alanine analogue 1074-Ala (position 2) peptide on HLA-A*02:01 (human)
T1 peptide: CANGVCWTV

T2: HCV NS3 (genotype 1a) peptide on HLA-A*02:01 (human)
T2 peptide: CINGVCWTV

T3: HCV NS3 (genotype 1b) peptide on HLA-A*02:01 (human)
T3 peptide: CVNGVCWTV

T4: HCV NS3 peptide on HLA-A*02:01 (human)
T4 peptide: KLVALGINAV

T5: HCV NS3 1073-1081, alanine analogue 1073-Ala (position 1) peptide on HLA-A*02:01 (human)
T5 peptide: AINGVCWTV

T6: Flu neuraminidase (Flu-NA231) peptide on HLA-A*02:01 (human)
T6 peptide: CVNGSCFTV

T7: HCV NS3 1073-1081, alanine analogue 1078-Ala (position 6) peptide on HLA-A*02:01 (human)
T7 peptide: CINGVAWTV

T8: HCV NS5 peptide on HLA-A*02:01 (human)
T8 peptide: VLTDFKTWL

T9: HCV NS3 1073-1081, alanine analogue 1080-Ala (position 8) peptide on HLA-A*02:01 (human)
T9 peptide: CINGVCWAV

T10: HCV NS3 1073 (genotype 6) peptide on HLA-A*02:01 (human)
T10 peptide: AINGVMWTV

T11: HCV NS3 1073-1081, alanine analogue 1081-Ala (position 9) peptide on HLA-A*02:01 (human)
T11 peptide: CINGVCWTA

T12: HCV NS3 1073 (genotype 4) peptide on HLA-A*02:01 (human)
T12 peptide: AVNGVMWTV

T13: HCV NS3 1073 (genotype 3) peptide on HLA-A*02:01 (human)
T13 peptide: TIGGVMWTV

T14: HCMV pp65 (pp65 495) peptide on HLA-A*02:01 (human)
T14 peptide: NLVPMVATV

T15: HCV NS5 (NS5 2221) peptide on HLA-A*02:01 (human)
T15 peptide: SPDADLIEANL

T16: HCV NS3 1073 (genotype 5) peptide on HLA-A*02:01 (human)
T16 peptide: CINGVMWTV

T17: HCV NS3 1073 (genotype 2) peptide on HLA-A*02:01 (human)
T17 peptide: TISGVLWTV

T18: HCV NS3 (genotype 1a) peptide on HLA-A*02:01 (human/mouse chimera)
T18 peptide: CINGVCWTV


Key:
[1] = molecular target: T1, HCV NS3 1073-1081, alanine analogue …; assay: T cell clone or line
[2] = molecular target: T2, HCV NS3 (genotype 1a) peptide on …; assay: T cell clone or line
[3] = molecular target: T3, HCV NS3 (genotype 1b) peptide on …; assay: cytokine release
[4] = molecular target: T4, HCV NS3 peptide on HLA-A*02:01; assay: cytokine release
[5] = molecular target: T5, HCV NS3 1073-1081, alanine analogue …; assay: cytokine release
[6] = molecular target: T6, Flu neuraminidase (Flu-NA231) peptide …; assay: cytokine release
[7] = molecular target: T7, HCV NS3 1073-1081, alanine analogue …; assay: cytokine release
[8] = molecular target: T8, HCV NS5 peptide on HLA-A*02:01; assay: cytokine release
[9] = molecular target: T9, HCV NS3 1073-1081, alanine analogue …; assay: cytokine release
[10] = molecular target: T10, HCV NS3 1073 (genotype 6) peptide on …; assay: cytokine release
[11] = molecular target: T11, HCV NS3 1073-1081, alanine analogue …; assay: cytokine release
[12] = molecular target: T12, HCV NS3 1073 (genotype 4) peptide on …; assay: cytokine release
[13] = molecular target: T13, HCV NS3 1073 (genotype 3) peptide on …; assay: cytokine release
[14] = molecular target: T14, HCMV pp65 (pp65 495) peptide on …; assay: cytokine release
[15] = molecular target: T15, HCV NS5 (NS5 2221) peptide on …; assay: cytokine release
[16] = molecular target: T16, HCV NS3 1073 (genotype 5) peptide on …; assay: cytokine release
[17] = molecular target: T17, HCV NS3 1073 (genotype 2) peptide on …; assay: cytokine release
[18] = molecular target: T18, HCV NS3 (genotype 1a) peptide on …; assay: cytokine release
[19] = molecular target: T1, HCV NS3 1073-1081, alanine analogue …; assay: cytokine release
[20] = molecular target: T2, HCV NS3 (genotype 1a) peptide on …; assay: multimer staining

Binder	peptide concentration at which reactive [2]	binding result [3]	binding result [4]	binding result [5]	binding result [6]	binding result [7]	binding result [8]	binding result [9]	binding result [10]	binding result [11]	binding result [12]	binding result [13]	binding result [14]	binding result [15]	binding result [16]	binding result [17]	also measured
I4G7 alpha chain with I4G7 beta chain2 (TCR, V domains shown) Valpha: AQSVTQPDARVTVSEGASLQLRCKYSYFGTPYLFWYVQYPRQGLQLLLKYYPGDPVVQGVNGFEAEFSKSNSSFHLRKASVHWSDWAVYFCAVSRDTNTGKLTFGDGTVLTVKP Vbeta: EAAVTQSPRNKVTVTGGNVTLSCRQTNSHNYMYWYRQDTGHGLRLIHYSYGAGNLRIGDVPDGYKATRTTQEDFFLLLELASPSQTSLYFCASSDYRDSGNTLYFGEGSRLIVV	< 100 ng/mL	recognises	no recognition	recognises	no recognition	recognises	no recognition	recognises	no recognition	recognises	no recognition	no recognition	no recognition	no recognition	no recognition	no recognition	EC50 of peptide [1]: 0.08 µg/mL
I8H4 (TCR, V domains shown) Valpha: AQKVTQTQTSISVVEKTTVTMDCVYETRDSSYFLFWYKQTASGEIVFLIRQDSYKKENATVGHYSLNFQKPKSSIGLIITATQIEDSAVYFCAMREITGNTGKLIFGLGTTLQVQP Vbeta: EAAVTQSPRNKVTVTGGNVTLSCRQTNSHNYMYWYRQDTGHGLRLIHYSYGAGNLRIGDVPDGYKATRTTQEDFFLLLELASPSQTSLYFCASSDALGGEDAEQFFGPGTRLTVL	–	recognises	no recognition	recognises	no recognition	recognises	no recognition	recognises	no recognition	recognises	no recognition	no recognition	no recognition	no recognition	no recognition	no recognition	binding result [18]: recognises; binding result [19]: recognises; binding result [20]: recognises
TCR-19 (TCR, V domains shown) Valpha: GEKVEQHQSTLSVREGDSAVINCTYTDTASSYFPWYKQEAGKSLHFVIDIRSNVDRKQSQRLTVLLDKKAKRFSLHITATQPEDSAIYFCAASLITGNTGKLIFGLGTTLQVQP Vbeta: GGIITQTPKFLIGQEGQKLTLKCQQNFNHDTMYWYRQDSGKGLRLIYYSITENDLQKGDLSEGYDASREKKSSFSLTVTSAQKNEMAVFLCASSLTANTEVFFGKGTRLTVV	–	–	–	–	–	–	recognises	–	–	–	–	–	–	–	–	–	–
I4G7 alpha chain with I4G7 beta chain1 (TCR, V domains shown) Valpha: AQSVTQPDARVTVSEGASLQLRCKYSYFGTPYRIEFSGREFALLFWYVQYPRQGLQLLLKYYPGDPVVQGVNGFEAEFSKSNSSFHLRKASVHWSDWAVYFCAVSRDTNTGKLTFGDGTVLTVKP Vbeta: EAAVTQSPRNKVAVTGGKVTLSCNQTNNHNNMGELNLAAANSPLYWYRQDTGHGLRLIHYSYVADSTEKGDIPDGYKASRPSQENFSLILELASLSQTAVYFCASSGGLGGHTLYFGAGTRLSVL	< 100 ng/mL	recognises	no recognition	recognises	no recognition	recognises	no recognition	recognises	no recognition	recognises	no recognition	no recognition	no recognition	no recognition	no recognition	no recognition	EC50 of peptide [1]: 0.08 µg/mL
I8A4 (TCR, V domains shown) Valpha: LAKTTQPPSMEAYEGQEVNVSCSHTNIATSEYIYWYRQVPHQGPQFIIQGYKDYVVNEVASLFISADRKLSTLSLPWVSLRDAAVYYCIVTDMETGGYKVVFGSGTRLLVSP Vbeta: EAAVTQSPRNKVAVTGGKVTLSCNQTNNHNNMYWYRQDTGHGLRLIHYSYGAGSTEKGDIPDGYKASRPSQENFSLILELATPSQTSVYFCASASTGASSYEQYFGPGTRLTVL	–	recognises	no recognition	recognises	no recognition	–	no recognition	–	no recognition	–	no recognition	no recognition	no recognition	no recognition	no recognition	no recognition	EC50 of peptide [2]: ≤ 0.4 µg/mL
I4F8 (TCR, V domains shown) Valpha: AQSVTQPDARVTVSEGASLQLRCKYSYFGTPYLFWYVQYPRQGLQLLLKYYPGDPVVQGVNGFEAEFSKSNSSFHLRKASVHWSDWAVYFCAVSNMGYKLTFGTGTSLLVDP Vbeta: DPKIIQKPKYLVAVTGSEKILICEQYLGHNAMYWYRQSAKKPLEFMFSYSYQKLMDNQTASSRFQPQSSKKNHLDLQITALKPDDSATYFCASSQEMGGALEQYFGPGTRLTVL	< 100 ng/mL	recognises	no recognition	recognises	no recognition	recognises	no recognition	recognises	no recognition	recognises	no recognition	no recognition	no recognition	no recognition	no recognition	no recognition	binding result [19]: recognises
TCR-69 (TCR, V domains shown) Valpha: LAKTTQPPSMEAYEGQEVNVSCSHTNIATSEYIYWYRQVPHQGPQFIIQGYKDYVVNEVASLFISADRKLSTLSLPWVSLRDAAVYYCIVTDLGITGNTGKLIFGLGTTLQVQP Vbeta: EAAVTQSPRNKVAVTGGKVTLSCNQTNNHNNMYWYRQDTGHGLRLIHYSYGAGSTEKGDIPDGYKASRPSQENFSLILELATPSQTSVYFCASGDEGYNSPLYFAAGTRLTVT	–	–	–	–	–	–	recognises	–	–	–	–	–	–	–	–	–	–
